Test results as given in patent publication US20140057332A1, “GLUCO-OLIGOSACCHARIDE OXIDASES FROM ACREMONIUM STRICTUM AND USES THEREOF” (The Governing Council of the University of Toronto, priority 2011, published 2014).

What was measured:
[1] = Optimum pH for activity; format: biochemical; details: 25 mM cellobiose, 37° C., Britton-Robinson buffer pH 5 to 12
Method: Temperature stability was measured by incubating 0.2 μg of enzyme for 1 h at nine different temperatures ranging from 25 to 60° C. (Table 9). While GOOX-VN and the variant GOOX-V were stable at 45° C., both lost more than 70% activity after incubation for 1 h at 50° C. […] The pH stability of GOOX-VN was determined by incubating 0.2 μg of the enzyme for 1 h at pH values from pH 3 to 12. After 1 h of incubation, GOOX-VN retained more than 80% activity at pH 5 to pH 10, 40% activity at pH 4, and less than 10% activity at pH values below 3 or above 11. Finally, the optimum pH for GOOX-VN activity was determined by incubating 0.1 μg of enzyme at 37° C. for up to 5 min with 25 mM cellobiose in 25 mM Britton-Robinson universal buffer solutions at pH 5 to 12. At regular time points, the chromogenic assay mix containing 400 mM potassium phosphate buffer pH 6, 0.1 mM 4-aminoantipyrine, 1 mM phenol, 3 U/ml horseradish peroxidase and 40 mM cellobiose was added to the reaction and was incubated for approximately 5 min at 37° C., until the chromogenic compound was detected.

[2] = Chromogenic H2O2 oxidase assay / kinetic analysis on xylose
Method: (§1) A chromogenic assay was used to measure hydrogen peroxide production (15). Reactions contained 0.1 mM 4aminoantipyrine (4AA), 1 mM phenol, 0.5 U horseradish peroxidase, 40 mM Tris-HCl (pH 8.0), and different substrates were initiated by adding 0.2 μg of enzymes to the 250 μL reaction mixture. The production of H2O2 was coupled to the oxidation of 4aminoantipyrine by horseradish peroxidase and detected at 500 nm. Reactions were incubated at 37° C. for 15 min to measure the specific activity of GOOX on 10 mM of monosaccharide or 1 mM of oligosaccharide.
(§2) At least 12 substrate concentrations were included to obtain kinetic parameters for each substrate. Initial rates were obtained by measuring reaction products every 30 s for 15 min at 37° C. and pH 8.0, and kinetic parameters were calculated using the Michaelis-Menten equation (GraphPad Prism5 Software).

[3] = Chromogenic H2O2 oxidase assay / kinetic analysis on cellotriose
[4] = Chromogenic H2O2 oxidase assay / kinetic analysis on cellobiose
Method: as §1, §2

[5] = Chromogenic H2O2 oxidase assay / kinetic analysis on xylobiose
Method: as §1, §2

[6] = Chromogenic H2O2 oxidase assay / kinetic analysis on maltose
Method: as §1, §2

[7] = Chromogenic H2O2 oxidase assay on xylopentaose; details: 1 mM xylopentaose; 37° C., 15 min
Method: as §1
An additional eight mutations, identified as Y72F, Y72A, E247A, E314A, W351A, N388S, Q353N, Q384A, were created in GOOX-VN to assess the influence of these residues on the substrate selectivity of GOOX-VN. […] The specific activity of each mutant was then measured at 37° C. for 15 min using 10 mM mono-sugars and 1 mM oligosaccharides as performed for Y300A, Y300N, and W351F (Table 11).

[8] = 1 mM cellotriose, 37° C., 15 min
[9] = 1 mM cellobiose, 37° C., 15 min

B1: Acremonium strictum gluco-oligosaccharide oxidase GOOX-VN (type strain CBS 346.70, V38 and N388), SEQ ID NO. 2 (Sarocladium strictum; A38V/S388N) (protein)
chain: NSINACLAAADVEFHEEDSEGWEMDGTAFNLRVDYDPVAIAIPRSTEDIAAAVQCGLDAGVQISAKGGGHSYGSYGFGGEDGHLMLELDRMYRVSVDDDNVATIQGGARLGYTALELLDQGNRALTHGTCPAVGIGGHVLGGGYGFATHTHGLTLDWLVGATVVLADASIVHVSKTENADLFWALRGGGGGFAIVSEFEFNTFEAPEIITTYQVTTTWNRKQHVAGLKALQDWAENTMPRELSMRLEINANALNWEGNYFGNAKDLKKVLQPIMKKAGGKSTISKLVETDWYGQINTYLYGADLNITYNYDVHEYFYANSLTAPRLSDEAISAFVDYKFDNSSVRPGRGWWIQWDFHGGKNSALASHSNDETAYAHRDQLWLWQFYDNIYDYENNTSPYPESGFEFMQGFVATIEDTLPEDRKGKYFNYADTTLDKEEAQKLYWRGNLEKLQAIKAKYDPEDVFGNVVSVEPIA
- pH optimum [1]: 10 pH
- Specific Activity of Enzyme Variants ([2]; 10 mM xylose, 37° C., 15 min): 0.4 µmol/min/mg
- Specific activity Defined substrate concentration ([2]; 10 mM xylose, 37° C., 15 min): 0.42 µmol/mg/min
- oxidation of xylose ([2]; after 3 min using 10 mM sugar): detected
- Specific activity From Vmax ([2]; substrate xylose): 5.20 µmol/mg/min
- Specific Activity of Enzyme Variants [3, 8]: 5.1 µmol/min/mg
- Specific activity Defined substrate concentration [3, 8]: 5.12 µmol/mg/min
- Specific activity From Vmax ([3]; substrate cellotriose): 5.96 µmol/mg/min
- Specific Activity of Enzyme Variants [4, 9]: 5.4 µmol/min/mg
- Specific activity Defined substrate concentration [4, 9]: 5.38 µmol/mg/min
- Specific activity From Vmax ([4]; substrate cellobiose): 6.18 µmol/mg/min
- Specific Activity of Enzyme Variants ([5]; 1 mM xylobiose, 37° C., 15 min): 7.9 µmol/min/mg
- Specific activity Defined substrate concentration ([5]; 1 mM xylobiose, 37° C., 15 min): 7.92 µmol/mg/min
- Specific activity From Vmax ([5]; substrate xylobiose): 8.73 µmol/mg/min
- Specific Activity of Enzyme Variants ([6]; 1 mM maltose, 37° C., 15 min): 1.5 µmol/min/mg
- Specific activity Defined substrate concentration ([6]; 1 mM maltose, 37° C., 15 min): 1.53 µmol/mg/min
- Specific activity From Vmax ([6]; substrate maltose): 5.94 µmol/mg/min
- Specific Activity of Enzyme Variants [7]: 10.8 µmol/min/mg
